Consider one molecule from patent publication US20260102461A1.

The test concerns the target TRPV1 disordered region polypeptide (UniProt Q8NER1). The experiment in a line: modified sandwich ELISA, fluorescence grade (key: 50000 < x < 100000, Weak binding). A general note: ELISA stands for enzyme-linked immunosorbent assay.

B1: S068 (designed binder)
chain: GDTRPRFLWQLKFECHFFNGTERVRLLERCIYNQEESVRFDSDVGEYRAVTELGRPDAEYWNSQKDLLEQRRAAVDTYCRHNYGVGESFTVQRRVEPKVTVYPSKTQPLQHHNLLVCSVSGFYPGSIEVRWFRNGQEEKAGVVSTGLIQNGDWTFQTLVMLETVPRSGEVYTCQVEHPSVTSPLTVEWRASGGGGSGGGGSGGGGIKEEHVIIQAEFYLNPDQSGEFMFDFDGDEIFHVDMAKKETVWRLEEFGRFASFEAQGALANIAVDKANLEIMTKRSNYTPITNVPPEVTVLTNSPVELREPNVLICFIDKFTPPVVNVTWLRNGKPVTTGVSETVFLPREDHLFRKFHYLPFLPSTEDVYDCRVEHWGLDEPLLKHWEFDAPSGGSHHHHHHLE
As to B1, the fluorescent signal (fluorescentsignal) fell in the range of 50000 to 100000.
